In US20030186419A1 (published 2003):

Target: T1, MASP-1 (MBL-associated serine protease 1) (human, UniProt P48740 20-699)
T1 sequence (looked up): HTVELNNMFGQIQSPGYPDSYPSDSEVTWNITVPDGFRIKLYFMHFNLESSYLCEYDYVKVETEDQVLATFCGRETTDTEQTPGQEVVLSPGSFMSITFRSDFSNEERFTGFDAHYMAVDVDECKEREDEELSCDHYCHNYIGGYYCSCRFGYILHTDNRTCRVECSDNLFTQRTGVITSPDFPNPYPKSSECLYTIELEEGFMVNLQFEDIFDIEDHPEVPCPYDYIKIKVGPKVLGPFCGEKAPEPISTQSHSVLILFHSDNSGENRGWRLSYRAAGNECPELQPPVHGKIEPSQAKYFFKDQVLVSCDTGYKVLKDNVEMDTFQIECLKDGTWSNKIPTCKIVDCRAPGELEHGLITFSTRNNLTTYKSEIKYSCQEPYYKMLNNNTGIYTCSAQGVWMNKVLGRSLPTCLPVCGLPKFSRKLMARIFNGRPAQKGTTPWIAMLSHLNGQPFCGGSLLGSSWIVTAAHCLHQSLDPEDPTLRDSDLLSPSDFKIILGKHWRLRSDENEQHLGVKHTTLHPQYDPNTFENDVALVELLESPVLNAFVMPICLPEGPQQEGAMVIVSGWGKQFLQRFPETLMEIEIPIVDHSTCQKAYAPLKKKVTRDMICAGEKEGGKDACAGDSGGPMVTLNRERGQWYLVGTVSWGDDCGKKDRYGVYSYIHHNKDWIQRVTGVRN
Experiment: co-capture on anti-MASP-1-coated wells, eluate blotted with anti-pMASP-3

B1: mannan binding lectin-associated serine protease 3 (MASP-3), natural protein from human plasma/serum (enzyme)
chain: HTVELNNMFGQIQSPGYPDSYPSDSEVTWNITVPDGFRIKLYFMHFNLESSYLCEYDYVKVETEDQVLATFCGRETTDTEQTPGQEVVLSPGSFMSITFRSDFSNEERFTGFDAHYMAVDVDECKEREDEELSCDHYCHNYIGGYYCSCRFGYILHTDNRTCRVECSDNLFTQRTGVITSPDFPNPYPKSSECLYTIELEEGFMVNLQFEDIFDIQDHPEVPCPYDYIKIKVGPKVLGPFCGEKAPEPISTQSHSVLILFHSDNSAENRGWRLSYRAAGNECPELQPPVHGKIEPSQAKYFFKDQVLVSCDTGYKVLKDNVEMDTFQIECLKDGTWSNKIPTCKIVDCRAPGELEHGLITFSTRNNLTTYKSEIKYSCQEPYYKMLNNNTGIYTCSAQGVWMNKVLGRSLPTCLPECGQPSRSLPSLVKRIIGGRNAEPGLFPWQALIVVEDTSRVPNDKWFGSGALLSASWILTAAHVLRSQRRDTTVIPVSKEHVTVYLGLHDVRDKSGAVNSSAARVVLHPDFNIQNYNHDIALVQLQEPVPLGPHVMPVCLPRLEPEGPAPHMLGLVAGWGISNPNVTVDEIISSGTRTLSDVLQYVKLPVVPHAECKTSYESRSGNYSVTENMFCAGYYEGGKDTCLGDSGGAFVIFDDLSQRWVVQGLVSWGGPEECGSKQVYGVYTKVSNYVDWVWEQMGLPQSVVEPQVER
notes: Natural protein in lectin preparations, MBL complexes or serum; On reducing blots only the B chain is seen; also called MBL-associated serine protease-3; lectin associated serine protease 110
B1: no binding.
